The record followed here is patent US20210252159A1, “CONJUGATES OF CARTILAGE-HOMING PEPTIDES” (priority 2018, published 2021).

Positions of bridges follow the written chain, without caps; N, C: chain ends. Residues, ends and D or L forms follow the SMILES beside them. *: point of attachment. X4 = C[C@@H]1C[C@H]2[C@@H]3CCC4=CC(=O)C=C[C@]4(C)[C@@]3(F)[C@@H](O)C[C@]2(C)[C@@]1(O)C(=O)COC(=O)[C@H]1CC[C@H](C(=O)*)CC1

Data set [1] in a line: Hydrolysis assay of peptide-drug conjugates in human plasma (free Dex by LC/MS). The format is in vitro ADME. Particulars: 37° C., release of free Dex, time points to 32 hr, read-out: Half-life (hours) as measured in the hydrolysis experiments (converted). The method, then: In order to determine hydrolysis rates, conjugates can be diluted in PBS, rat plasma, or human plasma and incubated at 37 degrees. Samples can be taken at designated time-points (e.g., 1, 2, 3, 5, 10, 15, 20, 25, 30, 45, 60, or 90 minutes and/or hours after administration). Internal standards such as triamcinolone acetonide (TAA) can be added as an internal standard, and then active agent/TAA can be extracted using acetonitrile, for example. The samples can be dried down, reconstituted, and analyzed by LC/MS. Data can be normalized using Dex AUC/TAA AUC. Percent hydrolysis can be calculated using the average ratio for active agent AUC/TAA AUC at a time point of maximal drug release. A general method can include using a lyophilized, purified peptide-drug conjugates reconstituted in DMSO following production to generate stock solution at 20 mg/mL. Each conjugate stock can be brought to 0.25 mg/mL in each hydrolysis condition (1×DPBS, human plasma and rat plasma) in triplicate and rocked at 37° C. To quantitate free active agent, 100 μl of the hydrolyzed conjugate solution can be transferred into 1 mL acetonitrile at 4° C. at which time all plasma proteins and intact conjugates can precipitate. This can be performed repeatedly to generate a series of time points (0 hr, 0.5 hr, 1 hr, 2 hr, 4 hr, 6 hr, 8 hr, 24 hr, 32 hr). The acetonitrile solution can be spun at 17,000 g for 5 minutes, and the supernatant removed and added to a 96 well block. The pellet can then be resuspended in 500 μl acetonitrile and re-pelleted as before. The supernatant can be removed and added to the same well in the block. Samples can be prepared for analysis by drying under a nitrogen stream followed by reconstitution in 110 μl 45:55 ACN:Citrate 10 mM pH 5.5. […] Quantification of free active agent (or drug) can be achieved through integration of active agent peaks of the TIC. […]
To quantitate free dexamethasone (Dex), 100 μl of the hydrolyzed conjugate solution was transferred into 1 mL acetonitrile at 4° C. at which time all plasma proteins and intact conjugates precipitated. […]

A short description of data set [2]: Hydrolysis assay of peptide-drug conjugates in rat plasma (free drug by LC/MS). The format is in vitro ADME. Particulars: 37° C. The method, then: Peptide-drug conjugate peptide(SEQ ID NO: 105)-DMA-dCIC was incubated in rat plasma at 37° C. Samples were removed at regular intervals, processed by solvent extraction, and analyzed by LC/MS to quantitate free dCIC. 11 time-points were measured between 5 min and 56 hours with 3 replicates per time point. The assay was repeated two times.
(§1) In order to determine hydrolysis rates, conjugates can be diluted in PBS, rat plasma, or human plasma and incubated at 37 degrees. Samples can be taken at designated time-points (e.g., 1, 2, 3, 5, 10, 15, 20, 25, 30, 45, 60, or 90 minutes and/or hours after administration). Internal standards such as triamcinolone acetonide (TAA) can be added as an internal standard, and then active agent/TAA can be extracted using acetonitrile, for example. The samples can be dried down, reconstituted, and analyzed by LC/MS. Data can be normalized using Dex AUC/TAA AUC. Percent hydrolysis can be calculated using the average ratio for active agent AUC/TAA AUC at a time point of maximal drug release. A general method can include using a lyophilized, purified peptide-drug conjugates reconstituted in DMSO following production to generate stock solution at 20 mg/mL. Each conjugate stock can be brought to 0.25 mg/mL in each hydrolysis condition (1×DPBS, human plasma and rat plasma) in triplicate and rocked at 37° C. To quantitate free active agent, 100 μl of the hydrolyzed conjugate solution can be transferred into 1 mL acetonitrile at 4° C. at which time all plasma proteins and intact conjugates can precipitate. This can be performed repeatedly to generate a series of time points (0 hr, 0.5 hr, 1 hr, 2 hr, 4 hr, 6 hr, 8 hr, 24 hr, 32 hr). The acetonitrile solution can be spun at 17,000 g for 5 minutes, and the supernatant removed and added to a 96 well block. The pellet can then be resuspended in 500 μl acetonitrile and re-pelleted as before. The supernatant can be removed and added to the same well in the block. Samples can be prepared for analysis by drying under a nitrogen stream followed by reconstitution in 110 μl 45:55 ACN:Citrate 10 mM pH 5.5. To ensure optimal recovery the block can be shaken via plate shaker at 7,000 rpm for 5 minutes during the reconstitution step. Prior to LC/MS the samples can be transferred to a 96 well plate and centrifuged at 6,500 g for 15 minutes. Analysis can be performed on an Agilent 1260 Infinity series HPLC with inline 6120 single quad MS using acetonitrile, water (+0.1% TFA) gradient (shown below) on an InfinityLab Poroshell SB-C18 column. Quantification of free active agent (or drug) can be achieved through integration of active agent peaks of the TIC.
(§2) Lyophilized, purified peptide-drug conjugates were reconstituted in DMSO following production to generate stock solution at 20 mg/mL. Each conjugate stock was brought to 0.25 mg/mL in each hydrolysis condition (1×DPBS, human plasma and rat plasma) in triplicate and rocked at 37° C.
(§3) To quantitate free dexamethasone (Dex), 100 μl of the hydrolyzed conjugate solution was transferred into 1 mL acetonitrile at 4° C. at which time all plasma proteins and intact conjugates precipitated. This was performed repeatedly to generate a series of time points (0 hr, 0.5 hr, 1 hr, 2 hr, 4 hr, 6 hr, 8 hr, 24 hr, 32 hr). The corticosteroid triamcinolone acetonide (25 μl, 0.1 mg/mL in 45:55 ACN:Citrate 10 mM pH 5.5) was supplemented into the acetonitrile solution as an internal standard. The acetonitrile solution was spun at 17,000 g for 5 minutes, and the supernatant removed and added to a 96 well block. The pellet was resuspended in 500 μl acetonitrile and re-pelleted as before. The supernatant was removed and added to the same well in the block.
Samples were prepared for analysis by drying under a nitrogen stream followed by reconstitution in 110 μl 45:55 ACN:Citrate 10 mM pH 5.5. To ensure optimal recovery the block was shaken via plate shaker at 7,000 rpm for 5 minutes during the reconstitution step. […]

A short description of data set [3]: Hydrolysis assay of peptide-drug conjugates in PBS (free Dex by LC/MS). The following applies: 37° C. The format is physicochemical. The method, then:
as §1, §2, §3
Samples were prepared for analysis by drying under a nitrogen stream followed by reconstitution in 110 μl 45:55 ACN:Citrate 10 mM pH 5.5. To ensure optimal recovery the block was shaken via plate shaker at 7,000 rpm for 5 minutes during the reconstitution step. Prior to LC/MS the samples were transferred to a 96 well plate and centrifuged at 6,500 g for 15 minutes. Analysis was performed on an Agilent 1260 Infinity series HPLC with inline 6120 single quad MS using a gradient of 0.1% TFA in acetonitrile (solvent B), and 0.1% TFA (aq) (solvent A) gradient (shown below) on an InfinityLab Poroshell SB-C18 column. […]

In data set [4] the test system is CIA rats. On the procedure:
Arthritis was induced in 9-week-old female Lewis rats (Envigo or Charles River Laboratories) by intradermal injection while anesthetized of 400 ug bovine type II collagen (Chondrex Inc, Redmond Wash.) in 2 adjacent 200 ul (1 mg/ml) doses on day 0. Collagen is prepared for injection by dissolving at 2 mg/ml in 0.01N glacial acetic acid in sterile water and rocking at 4° C. overnight then emulsifying in Freund's incomplete adjuvant (IFA, Sigma Aldrich). To emulsify, equal volumes of collagen solution and IFA are drawn up into separate syringes, which are joined by a 3-way stopcock. While on ice, the collagen and IFA are mixed by pressing between the two syringes rapidly for 10 minutes. Quality of the emulsification is tested after 10 minutes of mixing by dropping a small amount of mixture in water. A properly emulsified solution will remain as a discrete droplet and not disperse in the water. On day 7, rats are challenged with a second intradermal injection of 100 ug of collagen in 100 ul, 1 mg/ml, collagen in IFA solution prepared fresh. Body weight and ankle diameter measurements are recorded daily from day 7 through the end of the study. Ankle diameter was measure by a single researcher using a Fowler Digitrix 2 micrometer. Three measurements of each ankle were taken of the lateral dimension at the tarsus of lightly anesthetized rats. The reported ankle diameter measurement is the mean of the three measurements.
Arthritis was induced as described in four cohorts of 9-week-old female Lewis rats. Rats were randomly placed in treatment groups, balancing compound and dose groups across cohorts. […] Rats were dosed by tail vein injection on days 11 and 12 and euthanized on day 13 by CO2 asphyxiation. Immediately after cessation of respiratory movement, blood was collected by cardiac puncture, synovial fluid was collected from both knees, one hind limb was fixed in formalin and the alternate ankle was frozen on dry ice. Thymus, spleen, liver, and kidney weights were recorded.
CIA Response study design.
The aim of the study was to test the 4 conjugates with various linkers at two different doses in vivo in CIA rats to assess the following: ability to deliver sufficient dexamethasone to the joint to show functionality and potential therapeutic effect in the disease model.
CIA was induced in female Lewis rats (as described above, see EXAMPLE 21). Body weight and ankle joint diameters were measured on day 0 and then daily from day 7 until euthanasia. […] At euthanasia, synovial fluid was collected from both knees, one hind limb was fixed in formalin and the alternate ankle was frozen on dry ice. Thymus, spleen, liver, and kidney weights were recorded. Blood samples were submitted for CBC/Chemistry analysis, and the remaining plasma was frozen.

The term half-life denotes the time in which the quantity being followed falls by half.

Turning to `CC[C@H](C)[C@@H]1NC(=O)[C@@H]2CSSC[C@H](NC(=O)[C@H](CCCNC(=N)N)NC(=O)[C@@H](NC(=O)[C@H](CC(N)=O)NC(=O)[C@@H](NC(=O)[C@@H]3CCCN3C(=O)[C@@H](NC(=O)CNC(=O)[C@H](CO)NC(=O)CNC(=O)[C@H]3CC[C@H](C(=O)OCC(=O)[C@@]4(O)[C@H](C)C[C@H]5[C@@H]6CCC7=CC(=O)C=C[C@]7(C)[C@@]6(F)[C@@H](O)C[C@@]54C)CC3)C(C)C)[C@@H](C)CC)C(C)C)C(=O)N[C@@H](CCCNC(=N)N)C(=O)NCC(=O)N[C@@H](CO)C(=O)N[C@@H](CCCNC(=N)N)C(=O)N[C@@H](CC(=O)O)C(=O)N[C@H]3CSSC[C@H](NC(=O)[C@H](CCCNC(=N)N)NC(=O)[C@H](CO)NC(=O)[C@H](CC(N)=O)NC1=O)C(=O)N[C@@H](Cc1c[nH]cn1)C(=O)N[C@H](C(=O)N[C@H](C(=O)N1CCC[C@H]1C(=O)O)[C@@H](C)O)CSSC[C@H](NC(=O)[C@@H]1CCCN1C(=O)[C@H](CC(=O)O)NC(=O)[C@H](CC(C)C)NC3=O)C(=O)N[C@@H](CCCNC(=N)N)C(=O)N[C@@H](CCCNC(=N)N)C(=O)N[C@@H](C)C(=O)NCC(=O)N[C@@H](CCSC)C(=O)N[C@@H](CCCNC(=N)N)C(=O)N[C@@H](Cc1ccccc1)C(=O)NCC(=O)N[C@@H](CCCNC(=N)N)C(=O)N2` [Compound 25, Peptide(SEQ ID NO: 105)-trans-1,4-cyclohexyl-Dex] (X4-GSGVPINVRCRGSRDCLDPCRRAGMRFGRCINSRCHCTP-OH; disulfide 10-30, 16-35, 20-37 (inferred); C-terminus assumed), in data set [1], the half-life at 0.25 mg/mL is 21.3 h. Besides, the half-life at 0.25 mg/mL in data set [2] (Rat Plasma, release of free Dex, time points to 32 hr, read-out: Half-life (hours) as measured in the hydrolysis experiments (converted)) was 3.4 h. The half-life at 0.25 mg/mL in data set [2] (in rat plasma, free Dex, read-out: Hydrolysis half-life (converted)) is 3.4 h. For the same compound, in data set [3] (PBS, release of free Dex, time points to 32 hr), the “Half-life (hours) as measured in the hydrolysis experiments” value is “undetectable ≤32”. In addition, the Hydrolysis half-life entry in data set [3] (in PBS, free Dex) is “No Dex release ≤32 h”. Also, the “ankle swelling over time as compared to vehicle” value in data set [4] (0.2 mg/kg and 0.5 mg/kg Dex equivalents IV days 11 and 12) is recorded as “reduction in ankle swelling”. Moreover, in data set [4] (0.2 mg/kg and 0.5 mg/kg dose), the spleen weight entry is given as “reduction”, the thymus weight result is given as “reduction” and the total body weight result is recorded as “reduction”. Further, in data set [4] (0.2 mg/kg dose), the “change in median ankle diameter between day 11 and day 13 as compared to vehicle” value is recorded as “statistically significant reduction in ankle diameter”; the “difference from Dex in change in ankle diameter” value was “no statistically significant difference”. Moreover, in data set [4] (0.2 mg/kg dose groups), the “reduction in thymus weight as compared to vehicle” value is reported as “statistically significant”.
